Changes are numbered by the printed parent chain.
B1: E3: human anti-Tie1 antibody from phage Fab library, reformatted as IgG; HC variable SEQ ID NO:114, LC variable SEQ ID NO:116 (antibody, V domains shown)
VH: EVQLLESGGGLVQPGGSLRLSCAASGFTFSMYGMVWVRQAPGKGLEWVSVISPSGGNTGYADSVKGRFTISRDNSKNTLYLQVNSLRAEDTAVYYCARAPRGYSYGYYYWGQGTLVTVSSASTKGPSVFPLAPSSKSTSGG
VL: DIQMTQSPLSLSASVGDRVTITCRASQGIGHYLAWYQQKPGKVPKLLIYTASTLQSGVPSRFSGSGSGTDFTLTINSLQPEDVATYYCQQFNSYPHTFGQGTRLDIK
modifications: IgG constant regions; Synthetically generated peptide
B2: DX-2210: E3 antibody in which the light chain has been germlined (antibody, V domains shown)
VH: B1 VH
VL: B1 VL with L9S, N76S, D105E

Assays:
[1] = system: HUVEC; test: Tube formation by HUVEC in collagen gel; type: cell-based, human
Experimental: Human Umbilical vein endothelial cells (HUVEC) were obtained by treating fresh human umbilical cord veins with Trypsin-EDTA (1×) (Gibco/Invitrogen) for 20-25 minutes at 37° C. The cells were cultured in a T-25 flask coated with attachment factor (AF), (Cascade Biologics) in RPMI 1640 medium supplemented with 10% FCS, 0.4% BBE, 1% 1-glutamin, 1% penicillin/streptomycin. Primary cultures were detached with warm Trypsin-EDTA and used when confluent at the second or third passage. The cells were maintained in a proliferative state by culturing them in a split ratio 1:2 at an approximate density of the monolayer of about 60-80%. […]
After 2 passages HUVECs were seeded in their culture medium (40×10^3/50 μl/well of a 96-well plate) on a collagen gel (50 μl of collagen I 1.5 mg/ml) prepared by mixing 7.5 volumes of 2 mg/ml collagen (Collagen R; Serva, Heidelberg, Germany), 1 volume of 10× MEM, 1.5 volume of NaHCO3 (15.6 mg/ml) and ˜1 volume of NaOH to adjust the pH to 7.4. […] The assay was performed with a streptavidin antibody used as a control (from 1 ng/ml to 10 μg/ml): The total length of the tube network on the culture surface was quantified at 40× magnification by the METAVUE™ Software (Universal Imaging Corporation). Results from triplicate wells were expressed as mean vessel area per field ±SEM (relative units). […]

[2] = system: HUVEC; test: Flow cytometry on HUVEC control cells; type: binding, human
Experimental: Specific binding of the Tie1 antibodies and of control Mabs to mouse endothelial cells was measured by flow cytometry analysis (FACSscan, Becton Dickinson, Oxnard, Epics, Coulter). Mouse endothelial cell lines MS1, Le-2, Bend3, SVEC (ATCC, Rockville) and Tie1 transfected Le-2 cells were stained. Cell staining was modified from existing protocols. About 200,000 cells were used in each experiment: after trypsinization, cells were washed one time in PBS and resuspended PBS, 10% heat inactivated human serum (incubation buffer). To test specificity, antibodies were incubated at different dilutions for 1 h at room temperature. Cells were spun down by centrifugation for 3 min at 611 g. Between incubations cells were washed twice with PBS. […] After the final incubation step bound antibodies were detected by means of flow cytometry on a FACSCan and Epics Altra (Becton Dickinson, Oxnard, Coulter) and results analyzed.
Intracellular Tie1 was measured as described above, except for the addition of Saponin to the incubation buffer to a final concentration of 0.1% during incubations. […] The binding pattern in mouse cell lines detected by flow cytometry is different from the binding pattern in HUVEC in that in mouse cells there is a greater cell surface staining than that compared to primary human endothelial cell lines. […]

Molecule	IC50, tube formation ([1]; HUVEC, collagen type-I matrix, 0.1 ng/ml to 100 ng/ml tested)	inhibition of tube formation by HUVECs ([1]; collagen type-I gel)	staining of HUVEC control cells [2]
B1	less than 10 ng/ml	potent inhibitor of tube formation by HUVECS even at a concentration of 10 ng/ml	
B2			stained positively
